Here are results for 1 substance from paper PMC12483538.

For this test, the target named is SenDRT9 reverse transcriptase (SenRT), affinity tag cleaved, in complex with its ncRNA (Salmonella enterica). The test is described as follows: cryo-EM structure; 2.5 uM tag-cleaved DRT9 RT-ncRNA complex (hexamer) on Quantifoil grids; D3 symmetry imposed, 2.59 A.

As for “SenDRT9 reverse transcriptase (SenRT), affinity tag cleaved, in complex with its ncRNA (enzyme)”, the stoichiometry N is 6.
